Data taken from publication PMC5441565 (Nature, 2017).

Legend:
[1] = molecular target: mCherry-LacI-TIRR (human) (UniProt Q9BRJ7); assay: LacO/LacI tethering
GFP-LacI-53BP1 (human) = GFP-LacI-53BP1 (human) (UniProt Q12888); assay: LacO/LacI tethering
[2] = molecular target: TIRR-His (recombinant TIRR) (human, UniProt Q9BRJ7 1-211); assay: ITC
Sequence of TIRR-His (recombinant TIRR) (Q9BRJ7 whole entry): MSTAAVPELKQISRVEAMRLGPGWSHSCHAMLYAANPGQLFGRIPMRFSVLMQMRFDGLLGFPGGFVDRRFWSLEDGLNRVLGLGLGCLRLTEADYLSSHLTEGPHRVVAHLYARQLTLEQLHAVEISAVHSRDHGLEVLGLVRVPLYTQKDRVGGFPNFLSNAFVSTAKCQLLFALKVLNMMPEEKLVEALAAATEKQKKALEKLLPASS

Sequence of mCherry-LacI-TIRR (human) (Q9BRJ7 whole entry): as above
Sequence of GFP-LacI-53BP1 (human) (Q12888 whole entry): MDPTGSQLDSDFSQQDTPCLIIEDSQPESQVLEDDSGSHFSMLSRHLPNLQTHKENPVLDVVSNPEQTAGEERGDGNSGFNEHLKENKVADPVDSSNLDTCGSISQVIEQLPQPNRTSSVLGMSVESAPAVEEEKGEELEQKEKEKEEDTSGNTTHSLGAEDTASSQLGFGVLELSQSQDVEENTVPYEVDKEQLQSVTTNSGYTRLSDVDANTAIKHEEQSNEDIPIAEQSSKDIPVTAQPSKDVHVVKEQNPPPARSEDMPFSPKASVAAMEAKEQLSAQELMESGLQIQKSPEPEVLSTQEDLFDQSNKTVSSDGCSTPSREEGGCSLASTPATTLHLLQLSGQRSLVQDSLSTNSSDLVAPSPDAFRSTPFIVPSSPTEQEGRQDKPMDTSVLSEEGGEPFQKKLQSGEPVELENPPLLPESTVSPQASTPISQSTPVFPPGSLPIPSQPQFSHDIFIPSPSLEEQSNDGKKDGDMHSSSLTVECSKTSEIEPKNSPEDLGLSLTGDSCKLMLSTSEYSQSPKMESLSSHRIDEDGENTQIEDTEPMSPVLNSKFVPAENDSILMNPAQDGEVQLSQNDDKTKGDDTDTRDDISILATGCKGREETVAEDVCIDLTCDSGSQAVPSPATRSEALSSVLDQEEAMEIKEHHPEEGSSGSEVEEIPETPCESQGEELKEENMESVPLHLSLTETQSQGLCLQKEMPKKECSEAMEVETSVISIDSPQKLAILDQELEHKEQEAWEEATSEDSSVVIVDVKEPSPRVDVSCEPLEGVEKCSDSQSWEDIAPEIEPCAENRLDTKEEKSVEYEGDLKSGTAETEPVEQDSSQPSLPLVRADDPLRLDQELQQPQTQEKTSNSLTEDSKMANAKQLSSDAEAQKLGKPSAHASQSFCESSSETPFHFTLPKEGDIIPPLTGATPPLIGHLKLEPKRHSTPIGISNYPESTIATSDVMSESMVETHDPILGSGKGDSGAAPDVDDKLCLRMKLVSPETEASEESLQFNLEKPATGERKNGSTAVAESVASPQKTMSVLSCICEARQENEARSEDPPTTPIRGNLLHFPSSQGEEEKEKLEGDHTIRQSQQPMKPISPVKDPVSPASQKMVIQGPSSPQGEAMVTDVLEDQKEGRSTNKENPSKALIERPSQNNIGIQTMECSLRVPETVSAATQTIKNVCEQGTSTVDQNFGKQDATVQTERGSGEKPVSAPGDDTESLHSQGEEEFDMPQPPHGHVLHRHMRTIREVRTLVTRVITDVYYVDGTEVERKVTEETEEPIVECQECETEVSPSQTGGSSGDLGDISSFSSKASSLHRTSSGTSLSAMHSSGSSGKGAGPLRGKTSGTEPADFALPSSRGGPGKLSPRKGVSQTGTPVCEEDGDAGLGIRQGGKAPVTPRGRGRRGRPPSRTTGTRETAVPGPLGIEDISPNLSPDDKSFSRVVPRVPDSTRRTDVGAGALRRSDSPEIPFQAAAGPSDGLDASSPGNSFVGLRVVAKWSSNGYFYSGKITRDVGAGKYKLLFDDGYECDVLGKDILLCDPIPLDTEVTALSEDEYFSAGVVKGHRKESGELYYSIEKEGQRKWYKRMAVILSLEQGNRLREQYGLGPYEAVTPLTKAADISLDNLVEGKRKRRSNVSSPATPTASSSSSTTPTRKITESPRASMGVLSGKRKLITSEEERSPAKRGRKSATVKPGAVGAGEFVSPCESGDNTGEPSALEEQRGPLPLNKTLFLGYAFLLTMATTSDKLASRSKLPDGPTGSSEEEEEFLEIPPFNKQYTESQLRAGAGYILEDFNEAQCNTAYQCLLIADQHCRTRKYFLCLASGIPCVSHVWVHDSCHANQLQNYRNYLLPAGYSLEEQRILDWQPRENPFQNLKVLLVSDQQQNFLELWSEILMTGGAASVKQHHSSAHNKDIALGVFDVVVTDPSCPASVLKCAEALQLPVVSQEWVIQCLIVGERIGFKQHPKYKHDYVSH

For “53BP1 (P53-binding protein 1), endogenous (from UniProt Q12888 1-1972) (natural protein)”, which percent of cells with co-localisation on the LacO array (% of the cells) [1] is on record?
The percent of cells with co-localisation on the LacO array (% of the cells) was 57.5.

For “mCherry-TIRR (from UniProt Q9BRJ7 1-211) (natural protein)”, which percent of cells with co-localisation on the LacO array (% of the cells) (GFP-LacI-53BP1 (human)) is on record?
Its percent of cells with co-localisation on the LacO array (% of the cells) is 72.

B1: 53BP1 tandem Tudor domain (for ITC and NMR) (domain or fragment)
chain: NSFVGLRVVAKWSSNGYFYSGKITRDVGAGKYKLLFDDGYECDVLGKDILLCDPIPLDTEVTALSEDEYFSAGVVKGHRKESGELYYSIEKEGQRKWYKRMAVILSLEQGNRLREQYGLG
modifications: 15N-labelled for NMR; limits from PDB 2G3R (GHM tag remnant left out)
Which Kd [2] does the source give for B1 here?
Its Kd is 790 nM.

What about the “stoichiometry N” value [2] of the same molecule?
Its value is 1.
